Substitutions are numbered along the chain they refer to. Numbers in names are those of the source. Where “and” joins values, the source holds several entries; their conditions need not be identical. Equal values may be shown once.

B1: Humanised 10G8 H2L1 (antibody, V domains shown)
VH: EVQLVESGGGLVQPGGSLRLSCAASGFTFSNYAMSWVRQAPGKGLEWVATISDGGSFTYYLDNVRGRFTISRDNAKNSLYLQMNSLRAEDTAVYYCARDVGHTTFWYFDVWGSGTLVTVSS
VL: DIVMTQSPDSLAVSLGERATINCRASKSVSAAGYNFMHWYQQKPGQPPKVLIYYASNLESGVPDRFSGSGSGTDFTLTISSLQAEDVAVYYCLHSREFPFTFGGGTKVEIK
B2: Humanised 10G8 H1L4 (antibody, V domains shown)
VH: B1 VH with V2M, S113R
VL: B1 VL with A88V, K107N
B3: Humanised 10G8 H0L4 (antibody, V domains shown)
VH: B1 VH with S113R
VL: B1 VL with A88V, K107N
B4: Humanised 10G8 H0 IGHV3_23 + L1 IGKV1_5 (antibody, V domains shown)
VH: B1 VH with N31S, S113R
VL: B1 VL with Y54K, N57S
notes: built from the stated exchange of CDRL2; residue limits derived by me
B5: Humanised 10G8 H0 IGHV3_7 + L1 (antibody, V domains shown)
VH: B1 VH with N31S, A33W, S113R
VL: B1 VL
notes: built from the statement that the germline CDRH1 was exchanged for the mouse CDRH1 in H0; Human gamma 1/kappa constant regions
B6: Pos 95 Thr (antibody, V domains shown)
VH: B1 VH with N31S, D99T, S113R
VL: DIVMTQSPDSLAVSLGERATINCRASKSVSAAGYNFMHWYQQKPGQPPKVLIYYASNLESGVPDRFSGSGSGTDFTLTISSLQAEDVAVYYCLHSREFPFTFGGGTKVEIKR
notes: also called CDRH3 D95>T
B7: Pos 100D Trp (antibody, V domains shown)
VH: B1 VH with N31S, F108W, S113R
VL: B6 VL
notes: also called CDRH3 F100D>W
B8: Pos 101 Val (antibody, V domains shown)
VH: B1 VH with N31S, D109V, S113R
VL: B6 VL
notes: also called CDRH3 D101>V
B9: Pos 100C Val (antibody, V domains shown)
VH: B1 VH with N31S, Y107V, S113R
VL: B6 VL
notes: also called CDRH3 Y100C>V
B10: Pos 100D Val (antibody, V domains shown)
VH: B1 VH with N31S, F108V, S113R
VL: B6 VL
notes: also called CDRH3 F100D>V
B11: Pos 96 Trp (antibody, V domains shown)
VH: B1 VH with N31S, V100W, S113R
VL: B6 VL
notes: also called CDRH3 V96>W
B12: Pos 100C Trp (antibody, V domains shown)
VH: B1 VH with N31S, Y107W, S113R
VL: B6 VL
notes: also called CDRH3 Y100C>W
B13: Pos 96 Thr (antibody, V domains shown)
VH: B1 VH with N31S, V100T, S113R
VL: B6 VL
notes: also called CDRH3 V96>T
B14: Pos 102 Ser (antibody, V domains shown)
VH: B1 VH with N31S, V110S, S113R
VL: B6 VL
notes: also called CDRH3 V102>S
B15: Pos 98 Trp (antibody, V domains shown)
VH: B1 VH with N31S, H102W, S113R
VL: B6 VL
notes: also called CDRH3 H98>W
B16: Pos 100B Gln (antibody, V domains shown)
VH: B1 VH with N31S, W106Q, S113R
VL: B6 VL
notes: also called CDRH3 W100B>Q
B17: Pos 100A His (antibody, V domains shown)
VH: B1 VH with N31S, F105H, S113R
VL: B6 VL
notes: also called CDRH3 F100A>H
B18: Pos 100A Met (antibody, V domains shown)
VH: B1 VH with N31S, F105M, S113R
VL: B6 VL
notes: also called CDRH3 F100A>M
B19: Pos 101 Ala (antibody, V domains shown)
VH: B1 VH with N31S, D109A, S113R
VL: B6 VL
notes: also called CDRH3 D101>A
B20: Pos 100C Leu (antibody, V domains shown)
VH: B1 VH with N31S, Y107L, S113R
VL: B6 VL
notes: also called CDRH3 Y100C>L
B21: Pos 100C Gln (antibody, V domains shown)
VH: B1 VH with N31S, Y107Q, S113R
VL: B6 VL
notes: also called CDRH3 Y100C>Q
B22: Pos 100 Ala (antibody, V domains shown)
VH: B1 VH with N31S, T104A, S113R
VL: B6 VL
notes: also called CDRH3 T100>A
B23: Pos 101 Gln (antibody, V domains shown)
VH: B1 VH with N31S, D109Q, S113R
VL: B6 VL
notes: also called CDRH3 D101>Q
B24: Pos 100A Gln (antibody, V domains shown)
VH: B1 VH with N31S, F105Q, S113R
VL: B6 VL
notes: also called CDRH3 F100A>Q

One assay deals with T1, Human OSM (human, UniProt P13725 26-221).
T1 sequence: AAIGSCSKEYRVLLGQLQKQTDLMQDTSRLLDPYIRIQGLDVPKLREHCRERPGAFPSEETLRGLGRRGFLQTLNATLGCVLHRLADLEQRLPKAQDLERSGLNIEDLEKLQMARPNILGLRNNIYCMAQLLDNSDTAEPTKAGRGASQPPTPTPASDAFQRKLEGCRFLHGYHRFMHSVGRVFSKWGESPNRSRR
The experiment in a line: cell-based or functional assay.
Turning to B1, the “KB cell neutralisation assay, mean IC50” value is 0.014 µg/ml and 93 pM.
Still for that read-out and setting: the figure for B2 is 0.016 µg/ml and 107 pM; for B3 it is 0.018 µg/ml and 118 pM.

The target in a further assay is T2, Cynomolgus OSM (cynomolgus, UniProt A0A2K5VPC6 26-221).
T2 sequence: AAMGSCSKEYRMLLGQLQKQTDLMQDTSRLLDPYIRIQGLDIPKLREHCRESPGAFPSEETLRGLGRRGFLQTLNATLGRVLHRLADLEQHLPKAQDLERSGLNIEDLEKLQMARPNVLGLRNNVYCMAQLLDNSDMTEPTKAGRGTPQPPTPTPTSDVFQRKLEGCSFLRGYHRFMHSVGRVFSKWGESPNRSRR
The experiment in a line: cell-based or functional assay.
Consider B1, for which the “KB cell neutralisation assay, mean IC50” value was 0.013 µg/ml and 14 pM.
Same read-out and setting: the figure for B2 is 0.011 µg/ml and 10 pM; for B3 it is 0.012 µg/ml and 49 pM.

The next assay concerns the target T1, Human OSM. The experiment in a line: BIAcore kinetics, purified antibody. Background: In SPR one partner is held on a chip, and binding of the other changes the refractive index at the surface.
In the case of B1, the Kd came to 0.365 nM, the koff was 0.00014 s⁻¹ and the kon turned out to be 383000 M⁻¹ s⁻¹.
For B2, the Kd worked out at 0.37 nM, the koff was 0.000135 s⁻¹ and the on-rate (kon) worked out at 365000 M⁻¹ s⁻¹.
In the same order, the values of B3 are 0.374 nM, 0.00014 s⁻¹ and 374000 M⁻¹ s⁻¹.

A further assay has as its target T2, Cynomolgus OSM. The experiment in a line: BIAcore kinetics, purified antibody.
B1 displayed a dissociation constant (Kd) of 0.299 nM, a dissociation rate constant (koff) of 0.000124 s⁻¹ and an association rate constant (kon) of 414000 M⁻¹ s⁻¹.
In the same order, the values of B2 are 0.264 nM, 0.000111 s⁻¹ and 421000 M⁻¹ s⁻¹.
B3 showed a dissociation constant Kd of 0.242 nM, a koff of 0.000101 s⁻¹ and a kon of 418000 M⁻¹ s⁻¹.

The target of a further assay is T1, Human OSM. Kind of assay: BIAcore kinetics, transfection supernatant.
B1 registered a Kd of 0.286 nM, a koff of 0.000113 s⁻¹ and a kon of 394000 M⁻¹ s⁻¹.
B2 displayed a Kd of 0.344 nM, a koff of 0.00013 s⁻¹ and a kon of 377000 M⁻¹ s⁻¹.
In turn, B3 registered an equilibrium dissociation constant (Kd) of 0.268 nM, a koff of 0.000111 s⁻¹ and a kon of 413000 M⁻¹ s⁻¹.

The next assay deals with T1, Human OSM. The experiment in a line: BIAcore kinetics, transfection supernatant. This is another data set of the same source.
For the molecule B4, the Kd is 9.27 nM, the koff turned out to be 0.00066 s⁻¹ and the on-rate constant (kon) was found to be 71100 M⁻¹ s⁻¹.
On to B5, for which the equilibrium dissociation constant (Kd) was found to be 10.6 nM, the koff was determined as 0.000967 s⁻¹ and the on-rate (kon) was determined as 91000 M⁻¹ s⁻¹.

The next assay deals with T2, Cynomolgus OSM. The experiment in a line: BIAcore kinetics, transfection supernatant.
B4 registered an equilibrium dissociation constant (Kd) of 8.89 nM, a koff of 0.000593 s⁻¹ and a kon of 66700 M⁻¹ s⁻¹.
Regarding B5, the affinity, expressed as Kd, was 24.2 nM; the dissociation rate constant (koff) was 0.815 s⁻¹; the on-rate constant (kon) was 3.37e+07 M⁻¹ s⁻¹.

The target of another assay is T1, Human OSM. The experiment in a line: SPR (ProteOn XPR36 or Biacore T100), captured supernatant, OSM as analyte [continued]. How it is done:
(§1) The initial kinetic analyses for the CDRH3 screen were carried out on the ProteOn XPR36 (Biorad Laboratories) and certain supernatants were selected for more accurate kinetic analysis on the BiaCore T100.
(§2) For the ProteOn analysis, anti-human IgG (GE Healthcare/Biacore BR-1008-39) was coupled to a GLM chip (Biorad Laboratories 176-5012) by primary amine coupling. The CDRH3 variants were captured directly on to this surface and recombinant human OSM was passed over the captured antibody surface at 256, 64, 16, 4 and 1 nM, with a buffer injection alone (i.e. 0 nM) used to double reference the binding curves. Following the OSM binding event, the capture surfaces were regenerated: with 3M MgCl₂ the regeneration removed the previously captured antibody ready for another cycle of capture and binding analysis. The data was then fitted to the 1:1 model (with mass transport) inherent to the ProteOn analysis software. The run was carried out using HBS-EP (Biacore/GE-Healthcare BR-1006-69) and the analysis temperature was 25° C.
(§3) A similar method was used for analysis of constructs using the Biacore T100, anti-human IgG (GE Healthcare/Biacore BR-1008-39) was coupled to a CM5 chip (GE Healthcare/Biacore BR-1006-68) by primary amine coupling, antibodies were captured on this surface and recombinant human OSM was passed over the captured antibody surface at 256, 64, 16, 4 and 1 nM, with a buffer injection alone (i.e. 0 nM) used to double reference the binding curves. Regeneration was by using pulses of 3M 3M MgCl₂ or 100 mM phosphoric acid or using both reagents. The data was fitted to the 1:1 model inherent to the Biacore T100 analysis software. The run was carried out using HBS-EP (Biacore/GE-Healthcare BR-1006-69) and the analysis temperature was 25° C.
B6 showed a Kd of 0.632 nM.
Still for that read-out and setting: under B7 stands 0.711 nM; under B8, 0.44 nM.
For the molecule B9, the equilibrium dissociation constant (Kd) came out at 0.56 nM.
With B10, binding was characterised by a dissociation constant (Kd) of 0.675 nM.
On the same count and under the same terms, under B11 stands 0.979 nM; under B12, 0.687 nM.
B13 showed a Kd of 0.497 nM.
Same read-out and setting: under B14 stands 0.444 nM.
Same read-out and setting: under B15 stands 0.317 nM.

The target in a further assay is T1, Human OSM. Kind of assay: SPR (ProteOn XPR36 or Biacore T100), captured supernatant, OSM as analyte; grey cell: 3x decrease in binding. How it is done:
as §1, §2, §3
Molecule B16 came in with a Kd of 3.35 nM.
B17 returned a dissociation constant (Kd) of 39.7 nM.
As to B18, the Kd was 5.19 nM.
Regarding B19, the affinity, expressed as Kd, was 1.55 nM.
Molecule B20 had a Kd of 0.424 nM.
Molecule B21 showed a Kd of 1.17 nM.
Molecule B22 gave an equilibrium dissociation constant (Kd) of 8.55 nM.
On to B23, for which the affinity, expressed as Kd, was 1.1 nM.
For B24, the dissociation constant Kd amounted to 14.6 nM.

What is called Kd is a measure of binding affinity in units of concentration. The koff is the rate constant with which the complex falls apart. Read a high koff as a short-lived complex. A word on the kon: it is the second-order rate constant of association. The low end stands for slow association, the high end for fast association.

These data come from patent US20130251724A1 (GlaxoSmithKline, published 2013).
